# Patent US20110059888A1
# [ ]: non-standard residue; d: D form. Phe(3-Me) = Cc1cccc(C[C@H](N)C(=O)O)c1; Phe(4-Me) = Cc1ccc(C[C@H](N)C(=O)O)cc1; Phe(2-Me) = Cc1ccccc1C[C@H](N)C(=O)O; Arg(Me) = CNC(=N)NCCC[C@H](N)C(=O)O; Dap(CONH2) = NC(=O)NC[C@H](N)C(=O)O; Ala(cPr) = N[C@@H](CC1CC1)C(=O)O; Hyp = O=C(O)[C@@H]1C[C@@H](O)CN1; αMeF = C[C@](N)(Cc1ccccc1)C(=O)O; Aad = N[C@@H](CCCC(=O)O)C(=O)O; Cha = N[C@@H](CC1CCCCC1)C(=O)O; Cit = NC(=O)NCCC[C@H](N)C(=O)O; Abu = CC[C@H](N)C(=O)O; Aib = CC(C)(N)C(=O)O
# Molecular target: human OT7T175 (metastin receptor) (human) (UniProt Q969F8)
# Test: cell-based or functional assay
# Chain of UniProt Q969F8 (Q969F8 whole entry L364H): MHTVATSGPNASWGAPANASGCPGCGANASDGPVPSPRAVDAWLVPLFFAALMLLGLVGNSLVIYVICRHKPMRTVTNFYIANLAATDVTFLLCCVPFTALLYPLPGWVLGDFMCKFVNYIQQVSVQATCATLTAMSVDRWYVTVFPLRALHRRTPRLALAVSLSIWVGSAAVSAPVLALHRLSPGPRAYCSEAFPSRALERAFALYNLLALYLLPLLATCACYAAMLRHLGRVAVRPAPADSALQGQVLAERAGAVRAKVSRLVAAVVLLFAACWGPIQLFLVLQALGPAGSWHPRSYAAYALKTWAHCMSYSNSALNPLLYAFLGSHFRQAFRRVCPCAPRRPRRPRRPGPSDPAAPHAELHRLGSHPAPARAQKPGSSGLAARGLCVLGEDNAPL
row,Binder,"Specific Activity (EC50 of test compound based on EC50 of Metastin (45-54); intracellular calcium, FLIPR) (ratio to EC50 of Metastin (45-54))"
1,"Ac-[dY][Hyp]NTFSL[Arg(Me)]W-NH2 (SMILES CNC(=N)NCCC[C@H](NC(=O)[C@H](CC(C)C)NC(=O)[C@H](CO)NC(=O)[C@H](Cc1ccccc1)NC(=O)[C@@H](NC(=O)[C@H](CC(N)=O)NC(=O)[C@@H]1C[C@@H](O)CN1C(=O)[C@@H](Cc1ccc(O)cc1)NC(C)=O)[C@@H](C)O)C(=O)N[C@@H](Cc1c[nH]c2ccccc12)C(N)=O) [des(1)-Ac-[D-Tyr2,Hyp3,Thr5,Ser7,Arg(Me)9,Trp10]MS10]",0.6
2,"Ac-[dY]E[Dap(CONH2)]T[Cha]GL[Arg(Me)]W-NH2 (also: Gly7-Leu8 amide bond replaced by (E)-CH═CH-) [des(1)-Ac-[D-Tyr2,Glu3,Alb4,Thr5,Cha6,Gly7Ψ((E)CH═CH)Leu8,Arg(Me)9,Trp10]MS10]",0.5
3,"Ac-[dY][Hyp]NTFG[Ala(cPr)][Arg(Me)]W-NH2 [des(1)-Ac-[D-Tyr2,Hyp3,Thr5,Ala(cPr)8,Arg(Me)9,Trp10]MS10]",0.8
4,"Ac-[dY]E[Dap(CONH2)]TFGL[Arg(Me)]W-NH2 (also: Gly7-Leu8 amide bond replaced by (E)-CH═CH-) [des(1)-Ac-[D-Tyr2,Glu3,Alb4,Thr5,Gly7Ψ((E)CH═CH)Leu8,Arg(Me)9,Trp10]MS10]",0.5
5,"Ac-[dY][Hyp][Dap(CONH2)]TFGL[Arg(Me)]W-NH2 (also: Gly7Ψ((E)CH═CH)Leu8: amide between Gly and Leu replaced by (E) alkene) [des(1)-Ac-[D-Tyr2,Hyp3,Alb4,Thr5,Gly7Ψ((E)CH═CH)Leu8,Arg(Me)9,Trp10]MS10]",0.6
6,"Ac-[dY][Hyp]NT[Phe(3-Me)]GL[Arg(Me)]W-NH2 [des(1)-Ac-[D-Tyr2,Hyp3,Thr5,Phe(3Me)6,Arg(Me)9,Trp10]MS10]",0.8
7,"Ac-[dY]DNT[Cha]G[Ala(cPr)][Arg(Me)]W-NH2 (SMILES CNC(=N)NCCC[C@H](NC(=O)[C@H](CC1CC1)NC(=O)CNC(=O)[C@H](CC1CCCCC1)NC(=O)[C@@H](NC(=O)[C@H](CC(N)=O)NC(=O)[C@H](CC(=O)O)NC(=O)[C@@H](Cc1ccc(O)cc1)NC(C)=O)[C@@H](C)O)C(=O)N[C@@H](Cc1c[nH]c2ccccc12)C(N)=O) [des(1)-Ac-[D-Tyr2,Asp3,Thr5,Cha6,Ala(cPr)8,Arg(Me)9,Trp10]MS10]",2.5
8,"Ac-[dY][Hyp][Dap(CONH2)]TFGL[Arg(Me)]W-NH2 (SMILES CNC(=N)NCCC[C@H](NC(=O)[C@H](CC(C)C)NC(=O)CNC(=O)[C@H](Cc1ccccc1)NC(=O)[C@@H](NC(=O)[C@H](CNC(N)=O)NC(=O)[C@@H]1C[C@@H](O)CN1C(=O)[C@@H](Cc1ccc(O)cc1)NC(C)=O)[C@@H](C)O)C(=O)N[C@@H](Cc1c[nH]c2ccccc12)C(N)=O) [des(1)-Ac-[D-Tyr2,Hyp3,Alb4,Thr5,Arg(Me)9,Trp10]MS10]",0.5
9,"Ac-[dY][Hyp]NT[αMeF]GL[Arg(Me)]W-NH2 (SMILES CNC(=N)NCCC[C@H](NC(=O)[C@H](CC(C)C)NC(=O)CNC(=O)[C@](C)(Cc1ccccc1)NC(=O)[C@@H](NC(=O)[C@H](CC(N)=O)NC(=O)[C@@H]1C[C@@H](O)CN1C(=O)[C@@H](Cc1ccc(O)cc1)NC(C)=O)[C@@H](C)O)C(=O)N[C@@H](Cc1c[nH]c2ccccc12)C(N)=O) [des(1)-Ac-[D-Tyr2,Hyp3,Thr5,αMePhe6,Arg(Me)9,Trp10]MS10]",3.8
10,"Ac-[dY][Hyp]NTFGL[Arg(Me)]W-NH2 (also: Gly6-Leu7 amide replaced by (E)CH=CH) [des(1)-Ac-[D-Tyr2,Hyp3,Thr5,Gly7Ψ((E)CH═CH)Leu8,Arg(Me)9,Trp10]MS10]",0.6
11,"Ac-[dY][Hyp]NTFGL[Arg(Me)]W-NH2 (also: Gly6-Leu7 amide replaced by CH2CH2) [des(1)-Ac-[D-Tyr2,Hyp3,Thr5,Gly7Ψ(CH2CH2)Leu8,Arg(Me)9,Trp10]MS10]",0.8
12,"Ac-[dY]ENT[Cha]GL[Arg(Me)]W-NH2 (also: Gly7-Leu8 amide bond replaced by (E)-CH═CH-) [des(1)-Ac-[D-Tyr2,Glu3,Thr5,Cha6,Gly7Ψ((E)CH═CH)Leu8,Arg(Me)9,Trp10]MS10]",0.5
13,"Ac-[dY][Hyp]NT[Cha]GL[Arg(Me)]W-NH2 (also: Gly6-Leu7 amide replaced by (E)CH=CH) [des(1)-Ac-[D-Tyr2,Hyp3,Thr5,Cha6,Gly7Ψ((E)CH═CH)Leu8,Arg(Me)9,Trp10]MS10]",0.6
14,"Ac-[dY][Hyp][Dap(CONH2)]T[Cha]GL[Arg(Me)]W-NH2 (also: Gly7-Leu8 amide bond replaced by (E)-CH═CH-) [des(1)-Ac-[D-Tyr2,Hyp3,Alb4,Thr5,Cha6,Gly7Ψ((E)CH═CH)Leu8,Arg(Me)9,Trp10]MS10]",0.4
15,"Ac-[dY][Hyp]NT[Phe(2-Me)]GL[Arg(Me)]W-NH2 [des(1)-Ac-[D-Tyr2,Hyp3,Thr5,Phe(2Me)6,Arg(Me)9,Trp10]MS10]",0.7
16,"Ac-[dY][Hyp]NTF[Abu]L[Arg(Me)]W-NH2 [des(1)-Ac-[D-Tyr2,Hyp3,Thr5,Abu7,Arg(Me)9,Trp10]MS10]",1
17,"Ac-[dY]ENT[Cha]G[Ala(cPr)][Arg(Me)]W-NH2 (SMILES CNC(=N)NCCC[C@H](NC(=O)[C@H](CC1CC1)NC(=O)CNC(=O)[C@H](CC1CCCCC1)NC(=O)[C@@H](NC(=O)[C@H](CC(N)=O)NC(=O)[C@H](CCC(=O)O)NC(=O)[C@@H](Cc1ccc(O)cc1)NC(C)=O)[C@@H](C)O)C(=O)N[C@@H](Cc1c[nH]c2ccccc12)C(N)=O) [des(1)-Ac-[D-Tyr2,Glu3,Thr5,Cha6,Ala(cPr)8,Arg(Me)9,Trp10]MS10]",0.4
18,"Ac-[dY][Hyp]NT[Cha]G[Cha][Arg(Me)]W-NH2 [des(1)-Ac-[D-Tyr2,Hyp3,Thr5,Cha6,8,Arg(Me)9,Trp10]MS10]",3.5
19,"Ac-[dY][Hyp]NT[Cha]G[Ala(cPr)][Arg(Me)]W-NH2 [des(1)-Ac-[D-Tyr2,Hyp3,Thr5,Cha6,Ala(cPr)8,Arg(Me)9,Trp10]MS10]",0.5
20,"Ac-[dY][Hyp][Cit]T[Cha]GL[Arg(Me)]W-NH2 (also: Gly7Ψ((E)CH═CH)Leu8: amide between Gly and Leu replaced by (E) alkene) [des(1)-Ac-[D-Tyr2,Hyp3,Cit4,Thr5,Cha6,Gly7Ψ((E)CH═CH)Leu8,Arg(Me)9,Trp10]MS10]",0.9
21,"Ac-[dY][Hyp]NTFGL[Arg(Me)]W-NH2 (also: Phe5-Gly6 amide replaced by (R)CHOH-CH2) [des(1)-Ac-[D-Tyr2,Hyp3,Thr5,Phe6Ψ((R)CHOH-CH2)Gly7,Arg(Me)9,Trp10]MS10]",0.8
22,"Ac-[dY][Hyp]ET[Cha]GL[Arg(Me)]W-NH2 (also: Gly7Ψ((E)CH═CH)Leu8: amide between Gly and Leu replaced by (E) alkene) [des(1)-Ac-[D-Tyr2,Hyp3,Glu4,Thr5,Cha6,Gly7Ψ((E)CH═CH)Leu8,Arg(Me)9,Trp10]MS10]",4.6
23,"Ac-[dY][Hyp]NT[Phe(4-Me)]GL[Arg(Me)]W-NH2 [des(1)-Ac-[D-Tyr2,Hyp3,Thr5,Phe(4Me)6,Arg(Me)9,Trp10]MS10]",0.9
24,"Ac-[dY][Hyp]QT[Cha]GL[Arg(Me)]W-NH2 (also: Gly7Ψ((E)CH═CH)Leu8: amide between Gly and Leu replaced by (E) alkene) [des(1)-Ac-[D-Tyr2,Hyp3,Gln4,Thr5,Cha6,Gly7Ψ((E)CH═CH)Leu8,Arg(Me)9,Trp10]MS10]",1.4
25,"Ac-[dY][Aib]NT[Cha]G[Ala(cPr)][Arg(Me)]W-NH2 (SMILES CNC(=N)NCCC[C@H](NC(=O)[C@H](CC1CC1)NC(=O)CNC(=O)[C@H](CC1CCCCC1)NC(=O)[C@@H](NC(=O)[C@H](CC(N)=O)NC(=O)C(C)(C)NC(=O)[C@@H](Cc1ccc(O)cc1)NC(C)=O)[C@@H](C)O)C(=O)N[C@@H](Cc1c[nH]c2ccccc12)C(N)=O) [des(1)-Ac-[D-Tyr2,Aib3,Thr5,Cha6,Ala(cPr)8,Arg(Me)9,Trp10]MS10]",0.6
26,"Ac-[dY][Hyp]NTFAL[Arg(Me)]W-NH2 [des(1)-Ac-[D-Tyr2,Hyp3,Thr5,Ala7,Arg(Me)9,Trp10]MS10]",0.5
27,"Ac-[dY]ENTFGL[Arg(Me)]W-NH2 (also: Gly7-Leu8 amide bond replaced by (E)-CH═CH-) [des(1)-Ac-[D-Tyr2,Glu3,Thr5,Gly7Ψ((E)CH═CH)Leu8,Arg(Me)9,Trp10]MS10]",0.6
28,"Ac-[dY]KNT[Cha]G[Ala(cPr)][Arg(Me)]W-NH2 (not fully specified; printed as Ac-D-Tyr-Lys-Asn-Thr-Cha-Gly-Ala(cPr)-Arg(Me)-Trp-NH2) [des(1)-Ac-[D-Tyr2,Lys3,Thr5,Cha6,Ala(cPr)8,Arg(Me)9,Trp10]MS10]",0.7
29,"Ac-[dY][Aad]NT[Cha]G[Ala(cPr)][Arg(Me)]W-NH2 (SMILES CNC(=N)NCCC[C@H](NC(=O)[C@H](CC1CC1)NC(=O)CNC(=O)[C@H](CC1CCCCC1)NC(=O)[C@@H](NC(=O)[C@H](CC(N)=O)NC(=O)[C@H](CCCC(=O)O)NC(=O)[C@@H](Cc1ccc(O)cc1)NC(C)=O)[C@@H](C)O)C(=O)N[C@@H](Cc1c[nH]c2ccccc12)C(N)=O) [des(1)-Ac-[D-Tyr2,Aad3,Thr5,Cha6,Ala(cPr)8,Arg(Me)9,Trp10]MS10]",1.1
